Like-named read-outs stand apart in the source and are kept apart here.
Columns and labels:
Collagen type I = Collagen type I (Homo sapiens, UniProt P02452+P08123); details: binds to Collagen type I; Note 1 of Table 2; cited from earlier work
heparin = details: Note 1, cited from earlier work
B16F10 melanoma = assay: In vivo efficacy of retention linker IL-2 drugs in B16F10 syngeneic model (Example 17); set-up: species or system mice
Method: In a first efficacy study, C57BL/6 mice were subcutaneously inoculated with B16F10 melanoma cells and when the average tumor volume reached on average 70-90 mm^3, animals were randomized into 5 groups based on tumor volumes (n=6 mice per treatment group). Mice were dosed intravenously every 3 days (Q3D) for a total of 5 doses according to following design:
In a second efficacy study in the same model, C57BL/6 mice were subcutaneously inoculated with B16F10 melanoma cells and when the average tumor volume reached on average 70-90 mm^3, animals were randomized into 5 groups based on tumor volumes (n=6 mice per treatment group). Mice were dosed intravenously every 3 days (Q3D) for a total of 5 doses according to following design:
On Day 20, mice received an additional dose of drug, animals were sacrificed 24 hrs later and tissues and blood (processed to serum) were collected and stored at −80C for further testing. […] This is most likely due to the higher levels of both circulating drugs in serum and resident drug in TME, which can exert prolonged anti-tumor activity even after an extended dosing holiday.

fibronectin = fibronectin (Homo sapiens, UniProt P02751); assay: IL-2 fusion protein plate binding assay to fibronectin
Method: A similar plate-based assay was developed to interrogate binding of IL-2 fusion variants to fibronectin. 96-well plates were coated with 4 ug/mL of fibronectin (Sigma) or control BSA for 18-22 h at room temperature on shaker (350 rpm). After washing, wells are blocked with protein-free blocking buffer (Pierce) for 90 min, then fusion proteins are titrated in blocking buffer-0.1% Tween 20 pH 7.5 and/or pH 6 and added for 1 hr at room temperature with shaking. After washing, an anti-mouse IL-2 biotin-labelled detection antibody (JES6-5H4, ThermoFisher) is added and binding is detected using Ultra Streptavidin HRP (ThermoFisher). The plate was developed by adding the chromogenic tetramethylbenzidine substrate (Ultra TMB, ThermoFisher). The reaction is stopped by addition of 0.5M H2SO4 and the absorbance is read at 450-650 nm.

HEK-Blue™ IL-2 cells = assay: HEK-Blue IL2 reporter assay (SEAP, OD630); format: cell-based; details: Table 5C
Method: Recombinant MMP9 and/or MMP2 (R&D Systems) was first activated with p-aminophenylmercuric acetate and this activated protease or equivalent amount of activating solution without the protease was used to digest or mock digest the fusion protein for 1 hr, 2 hr, 4 hr and overnight (18-22 hr) at 37 C. Cleavage assays are set up in TCNB buffer: 50 mM Tris, 10 mM CaCl2), 150 mM NaCl, 0.05% Brij-35 (w/v), pH 7.5. Digested protein was aliquoted and stored at −80° C. prior to testing. Aliquots of digests were subsequently analyzed by SDS-PAGE followed by Western blotting to evaluate the extent of cleavage. Digests were also assessed in functional assays such as CTLL-2 proliferation and HEK-Blue Interleukin reporter assays. As shown in FIGS. 2A-E, essentially complete cleavage by MMP9 protease of the fusion proteins with functional site is seen after overnight incubation. In contrast, proteins containing a scrambled MMP cleavage site are not cut (FIG. 2E). HEK-Blue™ IL-2 cells are specifically designed to monitor the activation of the JAK-STAT pathway induced by IL-2. Indeed, stimulation with human or murine IL-2 triggers the JAK/STAT5 pathway and induces secreted embryonic alkaline phosphatase (SEAP) production. SEAP can be readily monitored when using QUANTI-Blue™, a SEAP detection medium. These cells respond to human and murine IL-2. For the HEK Blue assay, untreated and digested samples are titrated and added to 50 000 HEK Blue cells per well in 200 ul medium in a 96-well plate and incubated at 37C in 5% CO2 for 20-24 hr. The following day, levels of SEAP are measured by adding 20 uL of cell supernatant to QuantiBlue reagent, followed by 1-3 h incubation at 37C and reading absorbance at 630 nm. FIGS. 3C-J, 3Q-Y and Table 5B-5C show results obtained from IL2 fusion proteins tested in HEK Blue IL2 assay.

[1] = cleaved with MMP9, read-out: +MMP EC50

Collagen type I, sequence (P02452 162-1218 limits assumed): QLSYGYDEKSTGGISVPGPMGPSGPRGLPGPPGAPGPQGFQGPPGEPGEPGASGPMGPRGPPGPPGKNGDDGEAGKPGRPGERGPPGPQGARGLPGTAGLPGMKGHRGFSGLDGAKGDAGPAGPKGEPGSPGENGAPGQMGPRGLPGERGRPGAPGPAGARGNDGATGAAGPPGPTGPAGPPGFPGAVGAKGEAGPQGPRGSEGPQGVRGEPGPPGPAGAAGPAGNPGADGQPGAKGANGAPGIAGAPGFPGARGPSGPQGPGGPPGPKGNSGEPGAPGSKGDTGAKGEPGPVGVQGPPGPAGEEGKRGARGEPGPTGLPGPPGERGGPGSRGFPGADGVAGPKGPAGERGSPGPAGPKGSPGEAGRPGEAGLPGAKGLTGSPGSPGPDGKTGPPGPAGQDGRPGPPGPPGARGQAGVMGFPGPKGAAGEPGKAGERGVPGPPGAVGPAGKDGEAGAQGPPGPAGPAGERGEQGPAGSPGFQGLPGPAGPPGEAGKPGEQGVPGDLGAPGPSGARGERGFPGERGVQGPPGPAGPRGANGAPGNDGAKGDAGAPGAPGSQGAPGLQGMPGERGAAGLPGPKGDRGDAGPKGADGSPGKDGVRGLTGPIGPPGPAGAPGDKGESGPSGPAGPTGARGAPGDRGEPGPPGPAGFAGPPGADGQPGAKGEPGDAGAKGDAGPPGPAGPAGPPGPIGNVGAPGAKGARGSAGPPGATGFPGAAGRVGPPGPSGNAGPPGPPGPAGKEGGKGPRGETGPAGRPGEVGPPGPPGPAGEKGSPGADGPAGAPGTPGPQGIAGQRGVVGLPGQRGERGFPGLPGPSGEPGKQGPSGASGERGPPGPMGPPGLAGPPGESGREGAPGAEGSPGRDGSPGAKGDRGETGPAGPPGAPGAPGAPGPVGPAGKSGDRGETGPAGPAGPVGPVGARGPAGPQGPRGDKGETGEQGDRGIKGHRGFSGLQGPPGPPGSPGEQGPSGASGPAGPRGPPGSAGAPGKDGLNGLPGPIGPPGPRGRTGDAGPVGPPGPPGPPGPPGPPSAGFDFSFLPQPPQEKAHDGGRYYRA
Collagen type I, sequence (P08123 80-1119 limits assumed): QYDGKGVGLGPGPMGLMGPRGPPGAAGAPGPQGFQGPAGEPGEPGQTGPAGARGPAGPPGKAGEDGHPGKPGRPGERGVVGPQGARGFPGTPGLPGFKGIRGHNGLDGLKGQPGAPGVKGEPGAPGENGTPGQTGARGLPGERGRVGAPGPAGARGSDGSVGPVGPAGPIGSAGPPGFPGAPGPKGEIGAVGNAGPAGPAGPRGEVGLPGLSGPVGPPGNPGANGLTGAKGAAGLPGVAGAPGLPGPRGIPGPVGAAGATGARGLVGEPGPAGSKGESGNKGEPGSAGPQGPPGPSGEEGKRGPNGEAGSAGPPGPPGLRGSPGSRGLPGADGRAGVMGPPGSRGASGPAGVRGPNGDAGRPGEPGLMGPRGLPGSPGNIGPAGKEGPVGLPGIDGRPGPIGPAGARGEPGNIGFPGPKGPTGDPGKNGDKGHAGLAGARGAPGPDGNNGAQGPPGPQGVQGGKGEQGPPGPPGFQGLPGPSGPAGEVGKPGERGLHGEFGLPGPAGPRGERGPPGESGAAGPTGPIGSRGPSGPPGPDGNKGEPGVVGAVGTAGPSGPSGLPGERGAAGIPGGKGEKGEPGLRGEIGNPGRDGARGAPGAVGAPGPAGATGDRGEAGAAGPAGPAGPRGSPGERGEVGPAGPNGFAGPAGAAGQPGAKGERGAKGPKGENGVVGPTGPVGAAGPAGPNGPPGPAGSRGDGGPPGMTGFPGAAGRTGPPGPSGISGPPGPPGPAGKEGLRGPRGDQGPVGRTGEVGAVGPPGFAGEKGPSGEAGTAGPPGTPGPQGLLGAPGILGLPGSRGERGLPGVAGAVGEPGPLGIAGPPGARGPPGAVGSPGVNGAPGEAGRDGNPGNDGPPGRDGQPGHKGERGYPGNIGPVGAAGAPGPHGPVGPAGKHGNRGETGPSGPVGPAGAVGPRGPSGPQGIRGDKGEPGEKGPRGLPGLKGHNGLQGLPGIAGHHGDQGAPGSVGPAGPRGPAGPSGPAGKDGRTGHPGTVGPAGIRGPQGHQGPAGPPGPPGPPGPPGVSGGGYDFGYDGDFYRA
fibronectin, sequence (P02751 32-2477, species assumed): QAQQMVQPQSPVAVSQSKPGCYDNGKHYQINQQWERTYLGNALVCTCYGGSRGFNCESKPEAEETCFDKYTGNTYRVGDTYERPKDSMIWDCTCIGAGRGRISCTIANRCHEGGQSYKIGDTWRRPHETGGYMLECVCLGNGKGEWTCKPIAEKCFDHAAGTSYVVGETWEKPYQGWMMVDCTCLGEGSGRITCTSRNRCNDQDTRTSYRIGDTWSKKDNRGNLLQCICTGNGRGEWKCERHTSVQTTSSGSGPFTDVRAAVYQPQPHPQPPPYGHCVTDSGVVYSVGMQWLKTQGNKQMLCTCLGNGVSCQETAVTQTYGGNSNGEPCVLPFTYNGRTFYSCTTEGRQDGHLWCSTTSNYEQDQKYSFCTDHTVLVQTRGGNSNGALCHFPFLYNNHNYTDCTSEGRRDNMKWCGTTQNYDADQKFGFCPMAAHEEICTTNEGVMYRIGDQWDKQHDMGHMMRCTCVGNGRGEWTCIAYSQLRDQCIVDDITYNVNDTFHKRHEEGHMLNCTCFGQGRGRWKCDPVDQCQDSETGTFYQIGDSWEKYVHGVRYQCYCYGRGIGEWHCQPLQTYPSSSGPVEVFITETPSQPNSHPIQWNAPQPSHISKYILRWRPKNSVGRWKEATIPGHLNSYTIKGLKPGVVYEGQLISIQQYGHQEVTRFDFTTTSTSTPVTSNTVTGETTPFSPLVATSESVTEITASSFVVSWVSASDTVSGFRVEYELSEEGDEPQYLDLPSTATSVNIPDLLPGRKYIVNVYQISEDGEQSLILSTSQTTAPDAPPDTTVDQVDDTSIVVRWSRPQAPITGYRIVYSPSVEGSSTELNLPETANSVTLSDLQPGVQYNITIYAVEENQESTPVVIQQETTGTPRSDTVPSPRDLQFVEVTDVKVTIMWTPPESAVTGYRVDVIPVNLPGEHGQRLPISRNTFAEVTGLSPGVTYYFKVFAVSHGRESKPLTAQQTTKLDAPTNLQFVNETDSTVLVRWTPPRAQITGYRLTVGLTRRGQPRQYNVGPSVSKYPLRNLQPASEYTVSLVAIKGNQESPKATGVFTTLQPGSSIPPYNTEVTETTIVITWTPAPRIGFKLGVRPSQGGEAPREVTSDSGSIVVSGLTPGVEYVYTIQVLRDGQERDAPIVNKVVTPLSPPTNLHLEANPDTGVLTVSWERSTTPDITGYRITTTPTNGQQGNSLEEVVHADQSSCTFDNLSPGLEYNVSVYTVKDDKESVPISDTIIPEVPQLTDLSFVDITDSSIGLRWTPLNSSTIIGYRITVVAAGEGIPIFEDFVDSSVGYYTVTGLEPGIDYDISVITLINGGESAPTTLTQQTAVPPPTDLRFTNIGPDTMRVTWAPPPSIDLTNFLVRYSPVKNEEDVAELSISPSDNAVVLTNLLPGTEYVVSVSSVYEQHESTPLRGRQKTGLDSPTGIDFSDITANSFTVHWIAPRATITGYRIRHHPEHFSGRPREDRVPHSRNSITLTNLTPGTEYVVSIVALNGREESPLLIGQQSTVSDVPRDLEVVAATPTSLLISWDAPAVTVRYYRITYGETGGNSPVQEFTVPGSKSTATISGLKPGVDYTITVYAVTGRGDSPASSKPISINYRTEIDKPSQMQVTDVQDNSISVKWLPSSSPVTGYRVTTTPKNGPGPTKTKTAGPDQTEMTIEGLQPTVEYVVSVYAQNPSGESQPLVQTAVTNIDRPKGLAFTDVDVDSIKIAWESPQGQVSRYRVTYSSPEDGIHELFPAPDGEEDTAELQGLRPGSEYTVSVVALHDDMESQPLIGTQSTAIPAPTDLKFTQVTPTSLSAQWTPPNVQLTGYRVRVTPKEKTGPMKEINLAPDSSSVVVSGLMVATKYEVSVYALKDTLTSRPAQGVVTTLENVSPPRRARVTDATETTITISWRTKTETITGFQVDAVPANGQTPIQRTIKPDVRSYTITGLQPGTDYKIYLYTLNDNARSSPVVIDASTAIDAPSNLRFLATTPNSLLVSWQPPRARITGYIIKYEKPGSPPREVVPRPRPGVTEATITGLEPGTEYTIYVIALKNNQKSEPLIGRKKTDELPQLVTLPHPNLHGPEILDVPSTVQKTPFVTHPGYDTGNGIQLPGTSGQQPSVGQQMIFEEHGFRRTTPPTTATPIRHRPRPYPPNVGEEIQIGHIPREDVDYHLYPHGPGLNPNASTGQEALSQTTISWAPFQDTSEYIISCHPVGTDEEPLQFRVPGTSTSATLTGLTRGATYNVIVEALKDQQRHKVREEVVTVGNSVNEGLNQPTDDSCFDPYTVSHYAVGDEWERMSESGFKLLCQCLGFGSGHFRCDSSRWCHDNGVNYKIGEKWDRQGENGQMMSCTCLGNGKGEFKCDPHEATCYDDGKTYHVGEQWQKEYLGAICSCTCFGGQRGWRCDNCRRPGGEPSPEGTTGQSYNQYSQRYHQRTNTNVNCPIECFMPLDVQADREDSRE

189 (RRANAALKAGELYKSILYGC) [Construct 189]
Kd (Collagen type I): 860 nM

197 (HVWMQAPGGGK) [Construct 197]
Kd (Collagen type I): 61000 nM

195 (CPKESCNLFVLKD) [Construct 195]
Kd (Collagen type I): 681 nM

192 (LRELHLNNN) [Construct 192]
Kd (Collagen type I): 170 nM

650 (KKRPPTWRHNV) [Construct 650]
binding to heparin, pH dependence (heparin): binds to heparin at low pH

196 (WREPSFCALS) [Construct 196]
Kd (Collagen type I): 100000 nM

649 (GGKVEHRVKKRPPTWRHNVRAKYT) [Construct 649]
binding to heparin, pH dependence (heparin): binds to heparin at low pH

191 (MIVIELGTNPLKSSGIENGAFQGMKK) [Construct 191]
Kd (Collagen type I): 394 nM

645 (TTEPSEEHNHHK) [Construct 645]
affinity of binding to heparin at low pH (heparin): binds to heparin at low pH (lower affinity)

644 (KHAHL) [Construct 644]
affinity of binding to heparin at low pH (heparin): binds to heparin at low pH (lower affinity)

647 (HKGQHR) [Construct 647]
affinity of binding to heparin at low pH (heparin): binds to heparin at low pH (lower affinity)

194 (TKKTLRT) [Construct 194]
Kd (Collagen type I): ≤ 100000 nM

646 (TTEPSEEHNHHKHHDK) [Construct 646]
affinity of binding to heparin at low pH (heparin): binds to heparin at low pH (lower affinity)

193 (WREPSFCALS) [Construct 193]
Kd (Collagen type I): 100000 nM

648 (KVEHRVKKRPPTWRHNVRAKYT) [Construct 648]
binding to heparin, pH dependence (heparin): binds to heparin at low pH

643 (TTEPSEEHNHHK) [Construct 643]
affinity of binding to heparin at low pH (heparin): binds to heparin at low pH (low affinity)

642 (KHAHLKKQVSDHIAVY) [Construct 642]
affinity of binding to heparin at low pH (heparin): binds to heparin at low pH (high affinity)

B1: Construct EE: SEQ ID NO 815: m IL2-SGG-GGWSHW-MMPcs1-2x(G4S)-mIL2Ra(1-215)-mu IgG1 Fc (protein)
chain: APTSSSTSSSTAEAQQQQQQQQQQQQHLEQLLMDLQELLSRMENYRNLKLPRMLTFKFYLPKQATELKDLQCLEDELGPLRHVLDLTQSKSFQLEDAENFISNIRVTVVKLKGSDNTFECQFDDESATVVDFLRRWIAFCQSIISTSPQSGGGGWSHWGPLGVRGGGGGSGGGGSELCLYDPPEVPNATFKALSYKNGTILNCECKRGFRRLKELVYMRCLGNSWSSNCQCTSNSHDKSRKQVTAQLEHQKEQQTTTDMQKPTQSMHQENLTGHCREPPPWKHEDSKRIYHFVEGQSVHYECIPGYKALQRGPAISICKMKCGKTGWTQPQLTCVDEREHHRFLASEESQGSRNSSPESETSCPITTTDFPQPTETTAMTETFVLTMEYKGCKPCICTVPEVSSVFIFPPKPKDVLTITLTPKVTCVVVDISKDDPEVQFSWFVDDVEVHTAQTQPREEQFNSTFRSVSELPIMHQDWLNGKEFKCRVNSAAFPAPIEKTISKTKGRPKAPQVYTIPPPKEQMAKDKVSLTCMITDFFPEDITVEWQWNGQPAENYKNTQPIMDTDGSYFVYSKLNVQKSNWEAGNTFTCSVLHEGLHNHHTEKSLSHSPGK
TGI (%) D 15 (B16F10 melanoma; 10 mg/kg IV Q3D, 5 doses): 39.32%
TGI (%) D 20 (B16F10 melanoma; 10 mg/kg, 7 days following the fifth dose): 37.61%
fibronectin binding at acidic pH (fibronectin; pH 6): preferentially binds fibronectin at acidic pH
fibronectin binding at pH 7.5 (fibronectin; pH 7.5 (neutral)): no binding is observed
EC50 (HEK-Blue™ IL-2 cells; [1]): 0.0066 nM
EC50 (HEK-Blue™ IL-2 cells; uncleaved, read-out: −MMP EC50): 1.18 nM

B2: Construct AA: SEQ ID NO 811: m IL2-SGG-FHRRIKA-MMPcs1-2x(G4S)-mIL2Ra(1-215)-mu IgG1 Fc (protein)
chain: APTSSSTSSSTAEAQQQQQQQQQQQQHLEQLLMDLQELLSRMENYRNLKLPRMLTFKFYLPKQATELKDLQCLEDELGPLRHVLDLTQSKSFQLEDAENFISNIRVTVVKLKGSDNTFECQFDDESATVVDFLRRWIAFCQSIISTSPQSGGFHRRIKAGPLGVRGGGGGSGGGGSELCLYDPPEVPNATFKALSYKNGTILNCECKRGFRRLKELVYMRCLGNSWSSNCQCTSNSHDKSRKQVTAQLEHQKEQQTTTDMQKPTQSMHQENLTGHCREPPPWKHEDSKRIYHFVEGQSVHYECIPGYKALQRGPAISICKMKCGKTGWTQPQLTCVDEREHHRFLASEESQGSRNSSPESETSCPITTTDFPQPTETTAMTETFVLTMEYKGCKPCICTVPEVSSVFIFPPKPKDVLTITLTPKVTCVVVDISKDDPEVQFSWFVDDVEVHTAQTQPREEQFNSTFRSVSELPIMHQDWLNGKEFKCRVNSAAFPAPIEKTISKTKGRPKAPQVYTIPPPKEQMAKDKVSLTCMITDFFPEDITVEWQWNGQPAENYKNTQPIMDTDGSYFVYSKLNVQKSNWEAGNTFTCSVLHEGLHNHHTEKSLSHSPGK
EC50 (HEK-Blue™ IL-2 cells; [1]): 0.0109 nM
EC50 (HEK-Blue™ IL-2 cells; uncleaved, read-out: −MMP EC50): 0.442 nM

Reference: patent US20240043489A1, “Cytokine Prodrugs Comprising a Cleavable Linker” (Trutino Biosciences Inc., priority 2020, published 2024)
